# Experimental data: PMC4140278
# Key:
# [1] = target: arrestin-3 (β-arrestin-2) (UniProt P32121); test: BRET, arrestin-3-Rluc / FLAG-FFA4-eYFP, 5 min; conditions: for percent of reference: reference: wild type
# [2] = target: arrestin-3 (β-arrestin-2) (UniProt P32121); test: kinetic BRET, arrestin-3-Rluc / FFA4-eYFP; conditions: reference: wild type; sites T347,S350,S357
substance,measurement,setting,value
FFA4 (GPR120) (from UniProt Q5NUL3) S360A,percent of reference,[1]; sites S360,85%
FFA4 (GPR120) (from UniProt Q5NUL3) TSS/AAA,other: t½ of association,[2],weaker; reference 46 ± 6
same,percent of reference,"[1]; sites T347,S350,S357",77%
FFA4 (GPR120) (from UniProt Q5NUL3) TSS/AAA-DD/AA,"other: Emax, % of wild type","[1]; reference: DD/AA, sites T347,S350,S357",40%
FFA4 (GPR120) (from UniProt Q5NUL3) TSSS/AAAA,"other: Emax, % of wild type","[1]; reference: TSS/AAA, sites S360",weaker; reference 77 ± 2
same,percent of reference,"[1]; sites T347,S350,S357,S360",38%
FFA4 (GPR120) (from UniProt Q5NUL3) TTSS/AAAA,"other: Emax, % of wild type","[1]; reference: TSS/AAA, sites T349",same; reference 77 ± 2
same,percent of reference,"[1]; sites T347,T349,S350,S357",84%
FFA4 (GPR120) (from UniProt Q5NUL3) TTSSS/AAAAA,"other: Emax, % of wild type","[1]; reference: TSS/AAA, sites T349,S360",weaker; reference 77 ± 2
same,"other: Emax, % of wild type","[1]; reference: TSSS/AAAA, sites T349",same; reference 38 ± 2
same,"other: Emax, % of wild type","[1]; reference: TTSS/AAAA, sites S360",weaker; reference 84 ± 7
same,percent of reference,"[1]; sites T347,T349,S350,S357,S360",42%
FFA4 (GPR120) (from UniProt Q5NUL3) TTSSS/AAAAA-DD/AA,"other: Emax, % of wild type","[1]; reference: DD/AA, sites T347,T349,S350,S357,S360",21%
FFA4 (GPR120) (from UniProt Q5NUL3) TTSSS/AAAAA-EDD/AAA,"other: Emax, % of wild type","[1]; reference: EDD/AAA, sites T347,T349,S350,S357,S360",weaker; reference 69 ± 7
"FFA4 (GPR120) (from UniProt Q5NUL3) TUG-891 10 µM, 5 min",other: milli-BRET units,"[1]; reference: vehicle, sites T347,T349,S350,S357,S360",stronger; reference 63 ± 6
